Results on two substances are retold here after publication doi:10.1101/2024.02.28.582571.

For this experiment, the target named is microtubules assembled from purified bovine brain tubulin (bovine) (UniProt Q6B856). The experiment is described as follows: optical trap rupture force assay; kinetochores held on polystyrene beads through α-penta-His antibody; dynamic microtubules grown from coverslip-anchored GMPCPP seeds with bovine brain tubulin in BRB80, 1 mM GTP; 23 °C; force ramp 0.25 pN/s.
UniProt Q6B856, sequence (Q6B856 whole entry, looked up): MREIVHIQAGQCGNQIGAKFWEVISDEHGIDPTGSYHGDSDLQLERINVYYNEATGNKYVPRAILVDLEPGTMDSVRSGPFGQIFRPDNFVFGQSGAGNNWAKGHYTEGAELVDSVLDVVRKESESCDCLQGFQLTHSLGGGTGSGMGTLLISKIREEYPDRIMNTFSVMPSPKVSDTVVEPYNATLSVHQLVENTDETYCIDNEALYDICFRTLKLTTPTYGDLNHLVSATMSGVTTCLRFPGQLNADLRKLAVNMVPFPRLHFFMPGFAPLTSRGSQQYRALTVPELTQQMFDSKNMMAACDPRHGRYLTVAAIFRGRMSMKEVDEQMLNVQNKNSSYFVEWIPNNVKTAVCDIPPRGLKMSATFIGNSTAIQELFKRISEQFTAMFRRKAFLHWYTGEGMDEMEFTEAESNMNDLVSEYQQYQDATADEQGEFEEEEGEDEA

In turn, “native kinetochores purified from Kluyveromyces marxianus via Dsn1-6His-3M3DK (from UniProt A0ABX6F0Z3 1-547) (complex)” showed a median rupture force of 7.5 pN. Take “native kinetochores purified from Saccharomyces cerevisiae via Dsn1-6His-3M3DK (from UniProt P40568 1-576) (complex)”: the median rupture force was 7.2 pN.
